Measured values as given in US20140234868A1, “USE FOR GLYCOLIPOPROTEIN GINTONIN, ISOLATED AND IDENTIFIED FROM GINSENG, AS A NATURAL MEDICAL-PLANT DERIVED LIGAND” (KONKUK UNIVERSITY INDUSTRIAL COOPERATION CORP., priority 2011, published 2014).

T1: LPA3 receptor (Homo sapiens, UniProt Q9UBY5)
T1 construct: host or cells: B103 rat neuroblastoma cells
T1 sequence (Q9UBY5 1-353): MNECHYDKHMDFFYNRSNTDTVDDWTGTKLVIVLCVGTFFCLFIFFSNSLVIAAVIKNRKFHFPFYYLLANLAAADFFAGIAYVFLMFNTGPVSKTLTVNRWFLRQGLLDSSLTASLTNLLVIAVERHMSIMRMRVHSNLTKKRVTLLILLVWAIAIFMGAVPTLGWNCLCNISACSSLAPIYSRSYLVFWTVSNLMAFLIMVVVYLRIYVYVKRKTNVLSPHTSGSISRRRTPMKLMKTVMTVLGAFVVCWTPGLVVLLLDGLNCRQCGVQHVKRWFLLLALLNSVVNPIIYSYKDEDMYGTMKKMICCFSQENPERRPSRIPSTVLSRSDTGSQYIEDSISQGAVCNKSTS

B1: gintonin: ginseng-derived glycolipoprotein; structural protein of ginseng major latex-like protein (MLP151) and ribonuclease-like storage proteins; crude gintonin used in tests (protein)
chain 1: MGLTGKLICQTGIKSDGDVFHELFGTRPHHVPNITPANIQGCDLHEGEFGKVGSVVIWNYSIDGNAMIAKEEIVAIDEEDKSVTFKVVEGHLFEEFKSIVFSVHVDTKGEDNLVTWSIDYEKLNESVKDPTSYLDFLLSVTRDIEAHHLPK
chain 2: RSDYPWAMFALRLQWPAGFCEVNNACDTKSLLNTFTIHGLYPYNAKGTPALYCDGTAFDVNSVSDFLAEMHLAWPSHETNTEDIQFWEHEWKKHGRCSEALLKQTDYFRTALAFRKAFDIVGLLNQEGIYPNNDLYRPKMIKEAIKKHLNAVPEIDFTKNENSEYVLTDINVCVNQQATRFVDCPTDDATDDYRLKFVRLPSKMKFADPRTNSII

Assays:
LPA3 receptor = target: T1, LPA3 receptor; assay: Intracellular free Ca2+ (Fura-2AM) in LPA3-expressing B103 cells; format: cell-based
Excerpt: LPA family receptors are endogenous to cells of most organs. B103 rat neuroblastoma cells, known as LPA receptor-null cells (Valentine et al., Biochim Biophys Acta 1780. 597-605) were transiently transfected with a plasmid (vector) carrying one of genes coding for LPA1(edg-2), LPA2(edg-4), LPA3(edg-7), LPA4, LPA5 and LPA6 receptors or a plasmid carrying none of them (empty vector). Two or three days after transfection, the cells are suspended, and made permeable. Then, the permeable cells are treated with Fura-2AM, a fluorescent dye binding to calcium, and then with gintonin, followed by spectrofluorephotometry to examine whether gintonin induces an increase in intracellular free Ca^2+ level.
(1) preparing large quantities of plasmids carrying respective LPA family receptor genes and an empty plasmid carrying none of them through amplification and purification (maxi-preparation); (2) verifying the expression of LPA receptors wherein B103 cells are transfected with haematoglutin (HA)-tagged LPA receptors, and then subjected to Western blotting analysis using an anti-HA primary antibody and a horseradish peroxidase (HRP)-conjugated secondary antibody to develop a color; (3) verifying the expression of LPA receptors wherein B1-3 cells are transfected with haematoglutin (HA)-tagged LPA receptors, and then subjected to confocal laser microscopy using an anti-HA antibody and a fluorescence dye Cy3-conjugated secondary antibody; (4) transfecting the empty plasmid and each of the plasmids carrying LPA family receptor genes into B103 cells; (5) treating the transfected B103 cells with trypsin (0.05% trypsin with EDTA, w/v) 2-3 days post-transfection, to give a cell suspension; (6) culturing the suspended B103 cells with Fura-2AM (2.5 μM); and (7) treating the suspended B103 cells with gintonin and quantifying a change in intracellular free Ca^2+ level in a cuvette by spectrofluorephotometry using Fura-2AM.
Human LPA (lysophosphatidic acid) receptor subtypes, orphan GPCRs (G protein coupled receptors) and plasmids carrying GPCRs were purchased from Missouri S&T resource Center (www.cDNA.org).
The transient transfection of LPA receptor subtypes was carried out with the aid of Lipofectamine 2000 of Invitrogen. A plasmid (10.8 μg) carrying each LPA receptor (LPA1, LPA2, LPA3, LPA4, LPA5, and LPA6) was transfected into B103 cells grown in 10-cm dishes, and incubated for 2 days prior for use in experiments.
In this Example, gintonin, or ginsenoside Rb1 or Rg1 was examined for its ability to induce a transient increase of [Ca^2+]i in Fura-2AM-loaded B103 cells which were transfected with LPA receptors and in Fura-2AM-loaded B103 cells which were not transfected with LPA receptors. To this end, B103 cells (2˜4×10^6/ml) pre-treated with Fura-2AM were suspended in a 1.5 mM Ca^2+-containing buffer or Ca^2+-free buffer, and incubated 37° C. for 30 min, followed by analyzing intracellular calcium levels in the B103 cells in the presence of gintonin or ginsenosides.
Briefly, B103 cells (1˜2×10^6/ml) were mixed with 2.5 μM Fura 2-AM in a Ca^2+ buffer (pH 7.4) containing NaCl 120 mM, KCl 5 mM, MgCl2 1 mM, CaCl2 1.5 mM, glucose 10 mM, and HEPES 25 mM, and a Ca^2+ free buffer (pH 7.4) containing NaCl 120 mM, KCl 5 mM, MgCl2 1 mM, EGTA 0.2 mM, glucose 10 mM, and HEPES 25 mM at 37° C. for 30 min in water bath with shaking according to the Jørgensen method, and washed three times with Ca^2+ buffer or Ca^2+ free buffer to remove excess Fura-2AM.
[Ca^2+]i was estimated in Fura 2AM-loaded cells in suspension using an RF-5300PC intracellular ion measurement system (Shimadzu Corporation, Japan).
Briefly, Fura 2-AM loaded cells were diluted with an experimental medium to a final density of 2˜4×10^6 cells/mL, and transferred to polystyrene cuvettes (Elkay Ultra-VU). The cells were stirred using Teflon-coated magnets, and the cuvette housing was thermostatically controlled at 37° C. The excitation wavelengths were alternated between 340 and 380 nm under computer control. […]

endogenous CaCC = assay: Endogenous Ca2+-activated channel (CaCC) activation in Xenopus oocytes; format: cell-based, Xenopus laevis
BKCaK+ channels = assay: BKCa K+ channel activity in Xenopus oocytes, two-electrode voltage clamp; format: cell-based
Summary of the method: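 Two-electrode voltage clamp was performed at room temperature on stage V-VI Xenopus oocytes. Oocytes were perfused with Cl−/Ca2+-free solution, pH 7.4, containing 500 μM anthracene-9-carboxylic acid. Outward currents were recorded on 400 ms steps from −80 mV holding to +40 mV.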

| Molecule | effect on gintonin-induced intracellular calcium increase (LPA3 receptor; LPA3-expressing cells treated with antagonist) | effect on gintonin-induced CaCC activation (endogenous CaCC; Kil6425 10 μM, U73122 1 μM, 2-APB 100 μM, BAPTA 100 μM 3 h) | effect on gintonin-induced BKCaK+ channel activation (BKCaK+ channels; Kil6425 10 μM, U73122, U73343 1 μM, 2-APB 100 μM, BAPTA-AM, PMA 1 μM) | transient increase of [Ca2+]i when extracellular Ca2+ was depleted (LPA3 receptor; Ca2+-free buffer containing 0.2 mM EGTA, LPA3-expressing cells) | EC50 (LPA3 receptor; LPA3 receptor, B103 cells, read-out: EC50, LPA receptor-mediated intracellular calcium increase) | increase in intracellular calcium level (LPA3 receptor; gintonin 1 μg/ml, LPA3-expressing B103 cells) | increase of intracellular calcium level in co-existence with ginsenosides (LPA3 receptor; gintonin in the presence of ginsenoside Rb1 or Rg1) | CaCC activation (endogenous CaCC; gintonin 1 μg/ml, NMDA receptor-expressing Xenopus oocytes) | ED50, BKCaK+ channel activation (BKCaK+ channels; BKCaK+ channels expressed in Xenopus oocytes) | BKCa channel activity on repetitive treatment (desensitization) (BKCaK+ channels; repetitive treatments, data not shown) |
| --- | --- | --- | --- | --- | --- | --- | --- | --- | --- | --- |
| Cc1noc(-c2ccc(CSCCC(=O)O)cc2)c1NC(=O)OC(C)c1ccccc1Cl (stereo not shown) [Kil6425] | did not increase in intracellular calcium level even in the presence of gintonin | reduced gintonin-induced CaCC activation | reduced the gintonin-induced activation of BKCaK^+ channels | – | – | – | – | – | – | – |
| B1 | – | – | – | at a greatly lowered level | 0.12 ± 0.01 nM | 206.5 ± 11.2 µM | induce an increase in intracellular calcium level by activating LPA receptors in spite of co-existence with the ginsenosides | increases CaCC | 0.71 ± 0.08 µg/mL | Repetitive treatments of gintonin reduced BKa channel activity |
